Results: publication PMC12628392, “Reengineered Anti-CD4 Cys-diabody Variants for ^89Zr-immunoPET of CD4^+ T Cells in Immunocompetent Mice” (Molecular Imaging and Biology, 2025)

Legend:
recombinant mouse CD4 = target: T1, recombinant mouse CD4 (Mus musculus, strain , UniProt P06332); experiment: ELISA; saturation binding curves on immobilized recombinant mouse CD4; half-maximal binding (EC50), apparent affinity; conditions: both partners purified
T1 construct: CD4, mouse, recombinant; the supplementary information may tell source and limits; also called immobilized CD4 antigen; soluble murine CD4
T1 sequence (P06332 27-457): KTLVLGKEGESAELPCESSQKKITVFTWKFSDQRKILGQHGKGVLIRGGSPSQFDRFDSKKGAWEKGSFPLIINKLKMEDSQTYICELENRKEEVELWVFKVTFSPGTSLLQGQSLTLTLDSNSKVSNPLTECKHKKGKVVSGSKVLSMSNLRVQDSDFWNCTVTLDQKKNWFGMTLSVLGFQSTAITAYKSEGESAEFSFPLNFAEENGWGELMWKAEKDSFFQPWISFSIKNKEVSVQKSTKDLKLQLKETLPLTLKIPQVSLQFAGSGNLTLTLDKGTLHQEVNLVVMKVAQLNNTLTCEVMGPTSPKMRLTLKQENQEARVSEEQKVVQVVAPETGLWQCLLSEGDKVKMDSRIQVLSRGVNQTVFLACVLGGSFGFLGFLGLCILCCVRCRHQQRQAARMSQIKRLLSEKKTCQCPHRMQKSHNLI

[1] = target: mouse CD4 on splenocytes / CD4+ T cells (mouse (endogenous in splenocytes)) (UniProt P06332)
mouse CD4 on splenocytes / CD4+ T cells (mouse (endogenous in splenocytes)), sequence (P06332 27-457): as above

DFO-GK1.5 FR cDb (rat) = experiment: SEC; DFO-conjugated cDbs (inter-chain disulfide broken) compared with unconjugated cDbs; single peaks
[2] = target: mouse CD4 on splenocytes / CD4+ T cells (mouse (endogenous in splenocytes)) (UniProt P06332); remark: listed apart in the source
BSA = target: T2, BSA (Bos taurus, UniProt P02769); experiment: ELISA; control: BSA instead of CD4; data not shown; conditions: both partners purified
T2 construct: serum albumin, printed only as BSA; also called control (BSA)
T2 sequence (P02769 25-607): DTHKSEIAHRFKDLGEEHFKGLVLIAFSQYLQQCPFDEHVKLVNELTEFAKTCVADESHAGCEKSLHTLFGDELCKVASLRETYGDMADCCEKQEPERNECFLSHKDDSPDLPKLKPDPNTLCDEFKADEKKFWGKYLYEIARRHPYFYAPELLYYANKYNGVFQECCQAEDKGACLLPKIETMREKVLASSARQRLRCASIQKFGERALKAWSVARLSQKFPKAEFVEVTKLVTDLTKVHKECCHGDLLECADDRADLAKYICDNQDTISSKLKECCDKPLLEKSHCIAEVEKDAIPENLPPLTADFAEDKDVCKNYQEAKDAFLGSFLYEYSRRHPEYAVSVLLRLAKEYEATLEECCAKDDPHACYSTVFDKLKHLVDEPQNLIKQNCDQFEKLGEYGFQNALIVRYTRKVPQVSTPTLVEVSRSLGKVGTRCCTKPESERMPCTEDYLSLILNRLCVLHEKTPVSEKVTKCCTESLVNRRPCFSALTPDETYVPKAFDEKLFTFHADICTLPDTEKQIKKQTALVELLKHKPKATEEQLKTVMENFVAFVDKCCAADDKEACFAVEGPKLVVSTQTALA

DFO-GK1.5 N80D cDb (rat) = experiment: SEC; DFO-conjugated cDbs (inter-chain disulfide broken) compared with unconjugated cDbs; single peaks

| EC50 (recombinant mouse CD4) [nM] | ex vivo biodistribution 22 h p.i. of ^89Zr-GK1.5 FR cDb (2 µg) in C57BL/6J mice: uptake in spleen [1] [%ID/g] | ex vivo biodistribution 22 h p.i. of ^89Zr-GK1.5 FR cDb: uptake in axillary, brachial lymph nodes [1] [%ID/g] | ex vivo biodistribution 22 h p.i. of ^89Zr-GK1.5 FR cDb: uptake in cervical lymph nodes [1] [%ID/g] | ex vivo biodistribution 22 h p.i. of ^89Zr-GK1.5 FR cDb: uptake in inguinal lymph nodes [1] [%ID/g] | stoichiometry N (DFO-GK1.5 FR cDb (rat)) | binding result (recombinant mouse CD4) | ex vivo biodistribution 22 h p.i. of ^89Zr-GK1.5 N80D cDb (2 µg) in C57BL/6J mice: uptake in spleen [1] [%ID/g] | ex vivo biodistribution 22 h p.i. of ^89Zr-GK1.5 N80D cDb, blocked by co-injection of 60 µg (3 mg/kg) non-radioactive GK1.5 N80D cDb: uptake in spleen [1] [%ID/g] | ex vivo biodistribution 22 h p.i. of ^89Zr-GK1.5 N80D cDb, blocked by co-injection of non-radioactive GK1.5 N80D cDb: uptake in axillary, brachial lymph nodes [1] [%ID/g] | ex vivo biodistribution 22 h p.i. of ^89Zr-GK1.5 N80D cDb, blocked by co-injection of non-radioactive GK1.5 N80D cDb: uptake in cervical lymph nodes [1] [%ID/g] | ex vivo biodistribution 22 h p.i. of ^89Zr-GK1.5 N80D cDb, blocked by co-injection of non-radioactive GK1.5 N80D cDb: uptake in inguinal lymph nodes [1] [%ID/g] | ex vivo biodistribution 22 h p.i. of ^89Zr-GK1.5 N80D cDb: uptake in axillary, brachial lymph nodes [1] [%ID/g] | ex vivo biodistribution 22 h p.i. of ^89Zr-GK1.5 N80D cDb: uptake in cervical lymph nodes [1] [%ID/g] | ex vivo biodistribution 22 h p.i. of ^89Zr-GK1.5 N80D cDb: uptake in inguinal lymph nodes [1] [%ID/g] | ex vivo biodistribution 22 h p.i. of ^89Zr-GK1.5 N80D cDb, blocked by co-injection of non-radioactive GK1.5 N80D cDb: uptake in spleen (value of the text, differs from Table 2) [2] [%ID/g] | binding result (BSA) | stoichiometry N (DFO-GK1.5 N80D cDb (rat)) | Binder |
| --- | --- | --- | --- | --- | --- | --- | --- | --- | --- | --- | --- | --- | --- | --- | --- | --- | --- | --- |
| 2.25 |  |  |  |  |  |  |  |  |  |  |  |  |  |  |  |  |  | Parental anti-mouse CD4 antibody GK1.5 (rat IgG2b,k) (antibody, V domains shown, VH of hybridoma GK1.5; constant region of rat IgG2b heavy chain; VL of hybridoma GK1.5; constant region of rat kappa light chain; rat IgG2b, kappa; also called GK1.5 IgG; parental full-length GK1.5 IgG; source: bought: BioLegend Cat# 100401; copies: 2 + 2) VH: EVQLQQSGAELGKPGTSVKLSCKVSDYNIRRTYMHWVNQRPGKGLEWIGRIDPANGNTIYGEKFKSKATLTADTSSNTAYMQLSQLKSDDTAFYYCAIGVQYLDYWGQGVMVTVSS VL: DIVLTQSPASLAVSPGERVTISCRATESVSTLIHWFQQRPGQQPKLLIYLTSHLDSGVPARFSGSGSGTDFTLTIDPVEADDTATYYCQQTWNDPWTFGGGTKLELK |
|  | 20.7 | 10.5 | 16.7 | 13 | 2 | binds |  |  |  |  |  |  |  |  |  |  |  | GK1.5 FR cDb (scFv, V domains shown, as the VH of m1: CDRs of GK1.5 on the VH framework of YTS169; five amino acid linker, printed as G4S (VH-G4S-VL-Cys-His); C-terminal cysteine residue for site-specific conjugation, before the His6 tag; cys-diabody: covalent homodimer of the scFv; parent of m1; also called CDR-grafted cys-diabody; glycosylated GK1.5 FR cDb; source: production and purification told in the supplementary information) VH: EVKLQESGGGLVQPGRSLKLSCAASGFNIRRTYMHWVRQAPGKGLEWIGRIDPANGNTIYGEKFKSKFTISRDNAQNTLYLQMSKLGSEDTAIYYCAIGVQYLDYWGQGVMVTVSS VL: DIVLTQSPAMAMSPGERITISCRATESVSTLIHWYQQKPGQQPKLLIYLTSHLDSGVPARFSGSGSGTDFTLTIDPVEANDTATYYCQQTWNDPWTFGGGTKLELK |
| 3 |  |  |  |  |  |  | 48.5 | 9.7 | 16.6 | 20 | 18.3 | 43.5 | 66.2 | 44.3 | 8.1 | no binding | 2 | GK1.5 N80D cDb (scFv, V domains shown, VH: CDRs of GK1.5 (contact definition) on the VH framework of YTS169; five amino acid linker, printed as G4S (VH-G4S-VL-Cys-His); VL of GK1.5 FR cDb (CDRs of GK1.5 on the VL framework of YTS169) with N80D (L81 in Kabat numbering); C-terminal cysteine residue for site-specific conjugation, before the His6 tag; cys-diabody: covalent homodimer of the scFv (MW 52.2 kDa), inter-chain disulfide between …) VH: EVKLQESGGGLVQPGRSLKLSCAASGFNIRRTYMHWVRQAPGKGLEWIGRIDPANGNTIYGEKFKSKFTISRDNAQNTLYLQMSKLGSEDTAIYYCAIGVQYLDYWGQGVMVTVSS VL: DIVLTQSPAMAMSPGERITISCRATESVSTLIHWYQQKPGQQPKLLIYLTSHLDSGVPARFSGSGSGTDFTLTIDPVEADDTATYYCQQTWNDPWTFGGGTKLELK |
